Measurements published in the supplement of paper PMC10126150.
± gives the standard deviation of the averaged measurements.

What follows are sequences tested on ATP (assay: switch fluorescence ratio, 500 uM ATP over buffer (Cy3 cluster intensity, sum of 5 cycles each) (fold (ratio)); higher = stronger signal-on switching upon ATP binding; sequences stand for … in TCGTCGGCAGCGTCAGATGTGTATAAGAGACAGTTTTTTTTTTTTTTTTTTTTTTTTT…TC). Conditions: aptamer strand: ATP DNA aptamer (quencher-CACCTGGGGGAGTATTGCGGAGGAAGG + anchor), 100 nM annealed; ATP concentration: 500 uM.
How it was run: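 After annealing to 100 nM quencher-labelled ATP aptamer, Cy3-labelled switching-strand clusters on a modified Illumina MiSeq flow-cell were imaged in selection buffer. A second image followed after 15 min with 500 uM ATP at 22 °C, and five such buffer/ATP cycles were done, each separated by NaOH stripping and re-annealing. The fluorescence ratio, averaged per switch-domain sequence, is summed target-cycle over summed buffer-cycle Cy3 intensity per cluster, with clusters outside 100-1000 RFU excluded.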
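Also: ATP exposure 15 min at 22 °C before imaging.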

| Sequence | switch fluorescence ratio |
| --- | --- |
| ATTTAGGATT | 1.01 ± 0.018 |
| ATTTAGGCGT | 1 ± 0.039 |
| ATTTAGGGAT | 1.02 ± 0.051 |
| ATTTAGGGCA | 1.02 ± 0.051 |
| ATTTAGGGGT | 1.02 ± 0.057 |
| ATTTAGGTAG | 1.02 ± 0.024 |
| ATTTAGGTGG | 1.02 ± 0.053 |
| ATTTAGGTTT | 1.01 ± 0.012 |
| ATTTAGTGGG | 0.993 ± 0.048 |
| ATTTATAGAT | 0.979 ± 0.028 |
| ATTTATATCA | 1.01 ± 0.024 |
| ATTTATATCC | 1.02 ± 0.013 |
| ATTTATGTTA | 0.985 ± 0.012 |
| ATTTATGTTG | 1.01 ± 0.031 |
| ATTTATTCCG | 1.01 ± 0.032 |
| ATTTCAAAAG | 0.974 ± 0.023 |
| ATTTCAGATA | 1.01 ± 0.02 |
| ATTTCAGGGA | 0.978 ± 0.024 |
| ATTTCAGTAA | 1.05 ± 0.027 |
| ATTTCAGTAG | 1.016 ± 0.0019 |
| ATTTCAGTTG | 1.011 ± 0.006 |
| ATTTCGGGGA | 0.997 ± 0.042 |
| ATTTCGGGTT | 1.11 ± 0.28 |
| ATTTCGTTCG | 0.977 ± 0.013 |
| ATTTCTAACT | 1.015 ± 0.0022 |

| Sequence | switch fluorescence ratio |
| --- | --- |
| ATTTCTCAAT | 1.01 ± 0.03 |
| ATTTCTCTCT | 0.993 ± 0.014 |
| ATTTCTTTTT | 1.03 ± 0.0055 |
| ATTTGAACGT | 0.966 ± 0.085 |
| ATTTGAATA | 0.984 ± 0.022 |
| ATTTGACTTA | 1.03 ± 0.015 |
| ATTTGAGAGC | 0.987 ± 0.017 |
| ATTTGAGCAG | 1.01 ± 0.011 |
| ATTTGATGAG | 0.987 ± 0.045 |
| ATTTGCAACT | 0.994 ± 0.026 |
| ATTTGCGATT | 1.03 ± 0.019 |
| ATTTGCGTTC | 1.01 ± 0.056 |
| ATTTGCTTGT | 1.01 ± 0.021 |
| ATTTGGAAGA | 1.01 ± 0.0048 |
| ATTTGGAAGT | 1.02 ± 0.018 |
| ATTTGGACGG | 0.948 ± 0.026 |
| ATTTGGATAA | 0.9893 ± 0.0066 |
| ATTTGGATGT | 1 ± 0.026 |
| ATTTGGGAAG | 1.01 ± 0.021 |
| ATTTGGGCTG | 0.999 ± 0.015 |
| ATTTGGGGAG | 1.02 ± 0.048 |
| ATTTGGGGGT | 0.997 ± 0.023 |
| ATTTGGTTGG | 0.987 ± 0.044 |
| ATTTGGTTTC | 0.991 ± 0.025 |
| ATTTGTAGGT | 0.9967 ± 0.0019 |

| Sequence | switch fluorescence ratio |
| --- | --- |
| ATTTGTCGGC | 1.05 ± 0.051 |
| ATTTGTCGTA | 0.997 ± 0.029 |
| ATTTGTGGGA | 1 ± 0.029 |
| ATTTGTTACG | 1.01 ± 0.046 |
| ATTTGTTGAT | 1 ± 0.021 |
| ATTTGTTGG | 1.029 ± 0.0076 |
| ATTTGTTTCT | 0.9993 ± 0.0079 |
| ATTTGTTTTA | 1.08 ± 0.17 |
| ATTTTAAAGG | 0.977 ± 0.027 |
| ATTTTAAATG | 1.04 ± 0.03 |
| ATTTTAACGC | 1.048 ± 0.0063 |
| ATTTTAATGC | 1.018 ± 0.0019 |
| ATTTTAGAGC | 1.05 ± 0.038 |
| ATTTTAGGAC | 1.03 ± 0.025 |
| ATTTTAGGTT | 0.984 ± 0.03 |
| ATTTTATGTG | 0.991 ± 0.018 |
| ATTTTATTGT | 1 ± 0.05 |
| ATTTTCAACT | 1.03 ± 0.018 |
| ATTTTCATAC | 1.08 ± 0.026 |
| ATTTTCCTTT | 1.02 ± 0.039 |
| ATTTTCGGAT | 0.975 ± 0.01 |
| ATTTTCGTTA | 1.04 ± 0.024 |
| ATTTTGATAA | 1.02 ± 0.021 |
| ATTTTGCCGG | 0.965 ± 0.013 |
| ATTTTGGACC | 1 ± 0.021 |

| Sequence | switch fluorescence ratio |
| --- | --- |
| ATTTTGGGAC | 1.03 ± 0.047 |
| ATTTTGTAGT | 1.02 ± 0.029 |
| ATTTTGTCTT | 1.02 ± 0.019 |
| ATTTTGTGAT | 0.994 ± 0.025 |
| ATTTTGTGGA | 0.987 ± 0.015 |
| ATTTTGTTAG | 0.998 ± 0.011 |
| ATTTTGTTGT | 1.03 ± 0.048 |
| ATTTTTAACT | 0.99578 ± 0.00077 |
| ATTTTTACTC | 1.01 ± 0.029 |
| ATTTTTAGCA | 0.99765 ± 0.00045 |
| ATTTTTAGCT | 1.02 ± 0.031 |
| ATTTTTAGGG | 1.02 ± 0.033 |
| ATTTTTCCGT | 1.02 ± 0.019 |
| ATTTTTCTTC | 1.035 ± 0.0046 |
| ATTTTTGAAC | 0.99 ± 0.019 |
| ATTTTTGGTC | 0.9864 ± 0.0038 |
| ATTTTTGTGA | 0.98 ± 0.013 |
| ATTTTTTAAG | 0.9996 ± 0.0081 |
| ATTTTTTTG | 0.955 ± 0.021 |
| CAAAAAGAAT | 1.003 ± 0.0048 |
| CAAAAAGAGT | 1.014 ± 0.009 |
| CAAAAAGCAC | 1.06 ± 0.036 |
| CAAAAATTTT | 0.986 ± 0.026 |
| CAAAAGAACG | 0.975 ± 0.031 |
| CAAAAGATTC | 1.045 ± 0.0095 |
